48 molecules from patent US20130287807A1, “COMPOUNDS FOR TREATING SYMPTOMS ASSOCIATED WITH PARKINSON'S DISEASE” (priority 2008, published 2013) can be followed below.

Assay [1] has as its system monoclonal antibody MV-001. Description: In vitro binding assay (ELISA), BSA-coupled peptides, parental antibody MV-001. The conditions noted are these: Table 1C; peptide-BSA on plate, compared to original epitope. Details: species or system C57/B16 mice. Here is the method: Peptides derived from Phage Display as well as variants thereof were coupled to BSA and bound to ELISA plates (1 μM; as indicated in the respective figures) and subsequently incubated with the monoclonal antibody that was used for the screening procedure to analyse binding capacity of identified peptides.
Legend to Table 1C: the binding capacity is coded by the following binding code: 1:X describes the dilution factor of the parental AB
For orientation: An ELISA detects its analyte on a solid surface through an enzyme-linked reagent.

Assay [2] relates to monoclonal antibody MV-001. The assay is described as follows: In vitro inhibition assay (ELISA), MV-001 binding to original epitope. On the set-up: species or system C57/B16 mice. Conditions: Table 2C; OD at 10 ug peptide compared to original peptide. The protocol:
Different amounts of peptides (concentrations ranging from 10 μg to 0.08 μg; serial dilutions; for MV-002: concentrations ranging from 5 μg to 0.03 μg; serial dilutions), derived from Phage Display were incubated with the monoclonal antibody that was used for the screening procedure. Peptides diminishing subsequent binding of the antibody to the original epitope coated on ELISA plates were considered as inhibiting in this assay.
Legend to Table 2C: the inhibition capacity is coded by the following code: Weak inhibition means more peptide is required to lower AB binding than with the original epitope; strong inhibition means similar peptide amounts are required for mimotope and original epitope for lowering AB binding. Mimotopes are compared to the original peptide as standard. OD at 10 ug peptide used in the assay is used to calculate the competition capacity compared to original peptide.

Assay [3] concerns the target DAEFRH-peptide-specific monoclonal antibody (Example 1). Description: inhibition ELISA, competitor plate-bound DAEFRH-C-BSA.
Assay [4] addresses monoclonal antibody MV-001. Description: inhibition ELISA, competitor coated original epitope p4371; code 1 = weaker than original epitope.
For assay [5], the target named is monoclonal antibody MV-001. Description: ELISA on peptide-BSA; code 3 = strong binding, OD halfmax 1:>20000.

Bounds are passed on as bounds.

Turning to EELRHSVC [p4746], in assay [1], the “Binding Capacity” value is 3 (strong binding :>20000). Also, the “Inhibition Capacity” value in assay [2] is recorded as 1 (Weaker than original epitope (OD of 10 ug peptide below 3 times of original peptide)).

Regarding CHEFRH [p4802], the “Binding Capacity” value in assay [1] is 3 (strong binding :>20000). Further, in assay [2], the “Inhibition Capacity” value is 2 (strong inhibition (as original epitope; OD of 10 ug peptide below 2 times of original peptide)).

QDFRHYC [p4380]: in assay [1], the “Binding Capacity” value is 2 (medium binding :4000-20000). Further, the “Inhibition Capacity” value in assay [2] is on record as 1 (Weaker than original epitope (OD of 10 ug peptide below 3 times of original peptide)).

TSFRHGC [p4382]: in assay [1], the “Binding Capacity” value is listed as 2 (medium binding :4000-20000). For the same molecule, in assay [2], the “Inhibition Capacity” value was 1 (Weaker than original epitope (OD of 10 ug peptide below 3 times of original peptide)).

Turning to LPFRHGC [p4388], the “Binding Capacity” value in assay [1] was 2 (medium binding :4000-20000). For the same molecule, the “Inhibition Capacity” value in assay [2] is listed as 1 (Weaker than original epitope (OD of 10 ug peptide below 3 times of original peptide)).

Turning to DGLLFKHC [p4741], the “Binding Capacity” value in assay [1] is given as 3 (strong binding :>20000). In addition, the “Inhibition Capacity” value in assay [2] was 1 (Weaker than original epitope (OD of 10 ug peptide below 3 times of original peptide)).

Take CSEFKH [p4800]: the “Binding Capacity” value in assay [1] is on record as 3 (strong binding :>20000). In addition, the “Inhibition Capacity” value in assay [2] is 2 (strong inhibition (as original epitope; OD of 10 ug peptide below 2 times of original peptide)).

Regarding SAFRHHC [p4387], the “Binding Capacity” value in assay [1] is 2 (medium binding :4000-20000). For the same molecule, the “Inhibition Capacity” value in assay [2] was 1 (Weaker than original epitope (OD of 10 ug peptide below 3 times of original peptide)).

Take QFKHDLC [p4391]: in assay [1], the “Binding Capacity” value is 2 (medium binding :4000-20000). Besides, in assay [2], the “Inhibition Capacity” value is given as 1 (Weaker than original epitope (OD of 10 ug peptide below 3 times of original peptide)).

In the case of SEFKHC [p4801], the “Binding Capacity” value in assay [1] is on record as 3 (strong binding :>20000). The “Inhibition Capacity” value in assay [2] is on record as 1 (Weaker than original epitope (OD of 10 ug peptide below 3 times of original peptide)).

Turning to HEFRHC [p4803], in assay [1], the “Binding Capacity” value is recorded as 3 (strong binding :>20000). For the same molecule, the “Inhibition Capacity” value in assay [2] is reported as 2 (strong inhibition (as original epitope; OD of 10 ug peptide below 2 times of original peptide)).

For TPFRHTC [p4384], the “Binding Capacity” value in assay [1] is given as 2 (medium binding :4000-20000). In addition, in assay [2], the “Inhibition Capacity” value is reported as 1 (Weaker than original epitope (OD of 10 ug peptide below 3 times of original peptide)).

For the molecule EEFKYSC [p4393], the “Binding Capacity” value in assay [1] was 2 (medium binding :4000-20000). Moreover, the “Inhibition Capacity” value in assay [2] was 1 (Weaker than original epitope (OD of 10 ug peptide below 3 times of original peptide)).

In the case of SHFRHGC [p4389], the “Binding Capacity” value in assay [1] was 2 (medium binding :4000-20000). In addition, the “Inhibition Capacity” value in assay [2] is given as 1 (Weaker than original epitope (OD of 10 ug peptide below 3 times of original peptide)).

In the case of NWFPHPC [p4392], the “Binding Capacity” value in assay [1] is on record as 1 (weak binding :<4000). Also, in assay [2], the “Inhibition Capacity” value is reported as 1 (Weaker than original epitope (OD of 10 ug peptide below 3 times of original peptide)).

B1: Peptide 4002 (peptide)
peptide: SWEFRTC
On to B1, for which the IC50 in assay [3] is under 0.4 µg/mL.

B2: Peptide 1237 (peptide)
peptide: DRELKIC
In turn, B2 showed an IC50 in assay [3] of over 5 µg/mL.

B3: Peptide 4034 (peptide)
peptide: GPEFRW
In turn, B3 displayed an IC50 in assay [3] of under 0.5 µg/mL.

B4: Peptide 4023 (peptide)
peptide: SQEFRTP
Molecule B4 gave an IC50 in assay [3] of under 0.5 µg/mL.

B5: Peptide 4024 (peptide)
peptide: SSEFRVS
As to B5, in assay [3], the IC50 was under 0.5 µg/mL.

B6: Peptide 1236 (peptide)
peptide: DKELKIC
In turn, B6 returned an IC50 in assay [3] of over 5 µg/mL.

B7: p4801 (peptide)
peptide: SEFKHC
Regarding B7, the OD at 10 ug peptide relative to OD of original peptide (inhibition ELISA) in assay [4] lay in the range of 2 to 3 fold. The OD halfmax 1:X (dilution factor of the parental antibody at half-maximal OD) (dilutionfactor(1:x)) in assay [5] is over 20000.

B8: p4730 (peptide)
peptide: DEHPFRHC
In assay [4], B8 had an OD at 10 ug peptide relative to OD of original peptide (inhibition ELISA) of 2 to 3 fold. The OD halfmax 1:X (dilution factor of the parental antibody at half-maximal OD) (dilutionfactor(1:x)) in assay [5] was over 20000.

B9: Peptide 4031 (peptide)
peptide: DAELRY
In assay [3], B9 showed an IC50 of under 0.5 µg/mL.

B10: Peptide 1238 (peptide)
peptide: DKELRC
B10 gave an IC50 in assay [3] of under 0.5 µg/mL.

B11: Peptide 3009 (peptide)
peptide: SFEFRGC
In assay [3], B11 registered an IC50 of under 5 µg/mL.

B12: p4383 (peptide)
peptide: TSVFRHC
Molecule B12 registered an OD at 10 ug peptide relative to OD of original peptide (inhibition ELISA) in assay [4] of 2 to 3 fold. The OD halfmax 1:X (dilution factor of the parental antibody at half-maximal OD) (dilutionfactor(1:x)) in assay [5] is over 20000.

B13: Peptide 4035 (peptide)
peptide: GKEFRT
In the case of B13, the IC50 in assay [3] was under 0.5 µg/mL.

B14: p4725 (peptide)
peptide: THTDFRHC
B14 showed an OD at 10 ug peptide relative to OD of original peptide (inhibition ELISA) in assay [4] of 2 to 3 fold. In addition, in assay [5], the OD halfmax 1:X (dilution factor of the parental antibody at half-maximal OD) (dilutionfactor(1:x)) is over 20000.

B15: p4390 (peptide)
peptide: ILFRHGC
B15: the OD at 10 ug peptide relative to OD of original peptide (inhibition ELISA) in assay [4] fell in the range of 2 to 3 fold. Also, the OD halfmax 1:X (dilution factor of the parental antibody at half-maximal OD) (dilutionfactor(1:x)) in assay [5] was over 20000.

B16: Peptide 1241 (peptide)
peptide: DWEFRDAC
In turn, B16 came in with an IC50 in assay [3] of under 0.5 µg/mL.

B17: Peptide 4020 (peptide)
peptide: SWELRQA
Take B17: in assay [3], the IC50 was over 0.5 µg/mL.

B18: p4746 (peptide)
peptide: EELRHSVC
Turning to B18, in assay [4], the OD at 10 ug peptide relative to OD of original peptide (inhibition ELISA) lay in the range of 2 to 3 fold. For the same molecule, the OD halfmax 1:X (dilution factor of the parental antibody at half-maximal OD) (dilutionfactor(1:x)) in assay [5] is over 20000.

B19: Peptide 1235 (peptide)
peptide: DRELRIC
In assay [3], B19 registered an IC50 of under 0.5 µg/mL.

B20: p4386 (peptide)
peptide: LMFRHNC
In turn, B20 registered an OD at 10 ug peptide relative to OD of original peptide (inhibition ELISA) in assay [4] of 2 to 3 fold. For the same molecule, the OD halfmax 1:X (dilution factor of the parental antibody at half-maximal OD) (dilutionfactor(1:x)) in assay [5] was over 20000.

B21: p4741 (peptide)
peptide: DGLLFKHC
B21 came in with an OD at 10 ug peptide relative to OD of original peptide (inhibition ELISA) in assay [4] of 2 to 3 fold. In addition, the OD halfmax 1:X (dilution factor of the parental antibody at half-maximal OD) (dilutionfactor(1:x)) in assay [5] was over 20000.

B22: p4381 (peptide)
peptide: SEFKHGC
Take B22: the OD at 10 ug peptide relative to OD of original peptide (inhibition ELISA) in assay [4] fell in the range of 2 to 3 fold. In addition, in assay [5], the OD halfmax 1:X (dilution factor of the parental antibody at half-maximal OD) (dilutionfactor(1:x)) was over 20000.

B23: Peptide 4033 (peptide)
peptide: SLEFRF
For B23, in assay [3], the IC50 was under 0.5 µg/mL.

B24: Peptide 4036 (peptide)
peptide: AYEFRH
On to B24, for which, in assay [3], the IC50 is over 0.5 µg/mL.

B25: Peptide 4021 (peptide)
peptide: SVEFRYH
Molecule B25 displayed an IC50 in assay [3] of under 0.5 µg/mL.

B26: Peptide 3008 (peptide)
peptide: ELEFRGC
Take B26: the IC50 in assay [3] is under 5 µg/mL.

B27: Peptide 1239 (peptide)
peptide: EYEFRGC
B27 returned an IC50 in assay [3] of over 0.5 µg/mL.

B28: p4738 (peptide)
peptide: QSEFKHWC
As for B28, in assay [4], the OD at 10 ug peptide relative to OD of original peptide (inhibition ELISA) is 2 to 3 fold. Further, the OD halfmax 1:X (dilution factor of the parental antibody at half-maximal OD) (dilutionfactor(1:x)) in assay [5] is over 20000.

B29: p4740 (peptide)
peptide: ADHDFRHC
In assay [4], B29 came in with an OD at 10 ug peptide relative to OD of original peptide (inhibition ELISA) of 2 to 3 fold. Further, the OD halfmax 1:X (dilution factor of the parental antibody at half-maximal OD) (dilutionfactor(1:x)) in assay [5] was over 20000.

B30: Peptide 4022 (peptide)
peptide: SYEFRHH
In assay [3], B30 came in with an IC50 of under 0.5 µg/mL.

B31: Peptide 4032 (peptide)
peptide: DWELRQ
Take B31: the IC50 in assay [3] is under 0.5 µg/mL.

B32: p4707 (peptide)
peptide: SPNQFRHC
With B32, the OD at 10 ug peptide relative to OD of original peptide (inhibition ELISA) in assay [4] was in the range of 2 to 3 fold. In addition, in assay [5], the OD halfmax 1:X (dilution factor of the parental antibody at half-maximal OD) (dilutionfactor(1:x)) was over 20000.

B33: Peptide 4025 (peptide)
peptide: DWEFRD
In assay [3], B33 yielded an IC50 of under 0.5 µg/mL.

By IC50 is commonly meant the point on the concentration scale where inhibition reaches its midpoint. A high value points to lower potency.
